Results on 3 proteins are retold here after patent US6008019A, “Plasminogen activator from saliva of the vampire bat” (Schering Aktiengesellschaft, priority 1989, dated 1999).

Substrate in series [1]: N=C(N)NCCC[C@H](NC(=O)CNC(=O)[C@@H]1CCC(=O)N1)C(=O)Nc1ccc([N+](=O)[O-])cc1
In words: Km determination of amidolytic chromogenic substrates with t-PA. The series is classed as biochemical. The following applies: other: t-PA, 3 units per hole, 100 mM Tris pH 8.0/100 mM NaCl/0.01% Tween 80, 37° C., Lineweaver-Burk plot. As to the method: (§1) In a 96-hole plate, respectively 90 μl of 100 mM Tris pH 8.0/100 mM NaCl/0.01% "Tween" 80 and 50 μl of the corresponding chromogenic substrate (all from Kabi Vitrum, Stockholm, Sweden) in the final concentrations of 0.03/0.06/0.1/0.3/0.6 and 1 mM are incubated with 10 μl (3 units per hole) of the corresponding plasminogen activator at 37° C., and the thus-released p-nitroaniline is determined photometrically at 405 nm at various points in time between 0-7 hours. The resultant data are evaluated with the aid of a Lineweaver-Burk plot, and the Km value is determined (Segel, I. H., Enzyme Kinetics, John Wiley and Sons, New York). The following chromogenic substrates were utilized:

Substrate in series [2]: N=C(N)NCCC[C@H](NC(=O)CNC(=O)[C@@H]1CCC(=O)N1)C(=O)Nc1ccc([N+](=O)[O-])cc1
In words: Km determination of amidolytic chromogenic substrates with v-PA β. The series is classed as biochemical, Desmodus rotundus. The following applies: other: v-PA β, 3 units per hole, 100 mM Tris pH 8.0/100 mM NaCl/0.01% Tween 80, 37° C., Lineweaver-Burk plot. As to the method:
as §1

Substrate in series [3]: CC[C@@H](C)[C@@H](N)C(=O)N1CCC[C@H]1C(=O)N[C@@H](CCCNC(=N)N)C(=O)Nc1ccc([N+](=O)[O-])cc1
Described as above. It is filed as biochemical, Desmodus rotundus. The following applies: other: v-PA β, 3 units per hole, 100 mM Tris pH 8.0/100 mM NaCl/0.01% Tween 80, 37° C., Lineweaver-Burk plot. As to the method: as §1

Substrate in series [4]: N=C(N)NCCC[C@H](NC(=O)CNC(=O)[C@@H]1CCC(=O)N1)C(=O)Nc1ccc([N+](=O)[O-])cc1
Nature of the series: Km determination of amidolytic chromogenic substrates with v-PA α1. The series is classed as biochemical, Desmodus rotundus. The following applies: other: v-PA α1, 3 units per hole, 100 mM Tris pH 8.0/100 mM NaCl/0.01% Tween 80, 37° C., Lineweaver-Burk plot. As to the method:
as §1

Substrate in series [5]: CC[C@@H](C)[C@@H](N)C(=O)N1CCC[C@H]1C(=O)N[C@@H](CCCNC(=N)N)C(=O)Nc1ccc([N+](=O)[O-])cc1
The series is described as above. The series is classed as biochemical, Desmodus rotundus. The following applies: other: v-PA α1, 3 units per hole, 100 mM Tris pH 8.0/100 mM NaCl/0.01% Tween 80, 37° C., Lineweaver-Burk plot. As to the method: as §1

B1: t-PA (tissue-type plasminogen activator) (Homo sapiens) (protein)
chain: SYQVICRDEKTQMIYQQHQSWLRPVLRSNRVEYCWCNSGRAQCHSVPVKSCSEPRCFNGGTCQQALYFSDFVCQCPEGFAGKCCEIDTRATCYEDQGISYRGTWSTAESGAECTNWNSSALAQKPYSGRRPDAIRLGLGNHNYCRNPDRDSKPWCYVFKAGKYSSEFCSTPACSEGNSDCYFGNGSAYRGTHSLTESGASCLPWNSMILIGKVYTAQNPSAQALGLGKHNYCRNPDGDAKPWCHVLKNRRLTWEYCDVPSCSTCGLRQYSQPQFRIKGGLFADIASHPWQAAIFAKHRRSPGERFLCGGILISSCWILSAAHCFQERFPPHHLTVILGRTYRVVPGEEEQKFEVEKYIVHKEFDDDTYDNDIALLQLKSDSSRCAQESSVVRTVCLPPADLQLPDWTECELSGYGKHEALSPFYSERLKEAHVRLYPSSRCTSQHLLNRTVTDNMLCAGDTRSGGPQANLHDACQGDSGGPLVCLNDGRMTLVGIISWGLGCGQKDVPGVYTKVTNYLDWIRDNMRP
Consider B1, for which the Km in series [1] was found to be 2000 µM.

B2: Desmodus rotundus saliva plasminogen activator v-PA β (Desmodus rotundus) (protein)
chain: AYGGCSELRCFNGGTCWQAASFSDFVCQCPKGYTGKQCEVDTHATCYKDQGVTYRGTWSTSESGAQCINWNSNLLTRRTYNGRRSDAITLGLGNHNYCRNPDNNSKPWCYVIKASKFILEFCSVPVCSKATCGLRKYKEPQLHSTGGLFTDITSHPWQAAIFAQNRRSSGERFLCGGILISSCWVLTAAHCFQERYPPQHLRVVLGRTYRVKPGKEEQTFEVEKCIIHEEFDDDTYNNDIALLQLKSGSPQCAQESDSVRAICLPEANLQLPDWTECELSGYGKHKSSSPFYSEQLKEGHVRLYPSSRCTSKFLFNKTVTNNMLCAGDTRSGEIYPNVHDACQGDSGGPLVCMNDNHMTLLGIISWGVGCGEKDIPGVYTKVTNYLGWIRDNMRP
notes: from tissue
B2: the Km in series [2] and in series [3] was 2000 µM in each case.

B3: Desmodus rotundus saliva plasminogen activator v-PA α1 (Desmodus rotundus) (protein)
chain: AYGVACKDEITQMTYRRQESWLRPEVRSKRVEHCQCDRGQARCHTVPVNSCSEPRCFNGGTCWQAVYFSDFVCQCPAGYTGKRCEVDTRATCYEGQGVTYRGTWSTAESRVECINWNSSLLTRRTYNGRMPDAFNLGLGNHNYCRNPNGAPKPWCYVIKAGKFTSESCSVPVCSKATCGLRKYKEPQLHSTGGLFTDITSHPWQAAIFAQNRRSSGERFLCGGILISSCWVLTAAHCFQESYLPDQLKVVLGRTYRVKPGEEEQTFKVKKYIVHKEFDDDTYNNDIALLQLKSDSPQCAQESDSVRAICLPEANLQLPDWTECELSGYGKHKSSSPFYSEQLKEGHVRLYPSSRCAPKFLFNKTVTNNMLCAGDTRSGEIYPNVHDACQGDSGGPLVCMNDNHMTLLGIISWGVGCGEKDVPGVYTKVTNYLGWIRDNMHL
notes: from tissue
As for B3, the Km in series [4] is 2000 µM; in series [5] it was 1000 µM.

Broadly, the Km is the substrate concentration at which the rate is half of its maximum.
